What was measured:
[1] = target: HLA-C*12:03; assay: IEDB peptide-MHC binding, purified MHC/direct/fluorescence; filed as Kd, often an IC50 or EC50 that approximates it; ≥ and ≤ were set here for values at or beyond the usual limits of such assays
[2] = target: HLA-A*01:01; assay: as above
[3] = target: HLA-A*02:01; assay: as above
[4] = target: HLA-A*02:11; assay: as above
[5] = target: HLA-A*02:12; assay: as above
[6] = target: HLA-A*03:01; assay: as above
[7] = target: HLA-A*11:01; assay: as above
[8] = target: HLA-A*31:01; assay: as above
[9] = target: HLA-A*68:02; assay: as above
[10] = target: HLA-A*69:01; assay: as above
[11] = target: HLA-B*07:02; assay: as above
[12] = target: HLA-B*08:01; assay: as above
[13] = target: HLA-B*15:01; assay: as above
[14] = target: HLA-B*18:01; assay: as above
[15] = target: HLA-B*27:05; assay: as above
[16] = target: HLA-B*40:01; assay: as above
[17] = target: HLA-B*44:02; assay: as above
[18] = target: HLA-B*46:01; assay: as above
[19] = target: HLA-B*48:01; assay: as above; settings: source organism: Orthohantavirus hantanense
[20] = target: HLA-B*57:01; assay: as above
[21] = target: HLA-B*58:01; assay: as above
[22] = target: HLA-C*06:02; assay: as above
[23] = target: HLA-A*26:01; assay: IEDB peptide-MHC binding, purified MHC/competitive/fluorescence; filed as Kd, often an IC50 or EC50 that approximates it; ≥ and ≤ were set here for values at or beyond the usual limits of such assays
[24] = target: HLA-B*15:17; assay: as above
[25] = target: HLA-B*27:03; assay: as above
[26] = target: HLA-B*39:01; assay: as above; settings: source organism: Hantaan virus 76-118
[27] = target: HLA-B*51:01; assay: as above
[28] = target: HLA-A*02:01; assay: as above; settings: source organism: Vibrio cholerae
[29] = target: HLA-A*02:12; assay: as above; settings: source organism: Vibrio cholerae
[30] = target: HLA-A*24:02; assay: IEDB peptide-MHC binding, purified MHC/direct/fluorescence; filed as Kd, often an IC50 or EC50 that approximates it; ≥ and ≤ were set here for values at or beyond the usual limits of such assays
[31] = target: HLA-C*05:01; assay: as above; settings: source organism: Giardia intestinalis
[32] = target: HLA-A*23:01; assay: as above; settings: source organism: Dengue virus 1 Singapore/S275/1990
[33] = target: HLA-A*02:19; assay: IEDB peptide-MHC binding, purified MHC/competitive/fluorescence; filed as Kd, often an IC50 or EC50 that approximates it; ≥ and ≤ were set here for values at or beyond the usual limits of such assays; settings: source organism: Bacillus licheniformis
[34] = target: HLA-B*15:01; assay: as above; settings: source organism: Bacillus cereus G9241
[35] = target: HLA-B*35:01; assay: as above; settings: source organism: Bacillus cereus G9241
[36] = target: HLA-A*02:01; assay: IEDB peptide-MHC binding, purified MHC/competitive/fluorescence; ≥ and ≤ were set here for values at or beyond the usual limits of such assays; settings: source organism: Zaire ebolavirus
[37] = target: HLA-A*24:02; assay: as above; settings: source organism: Zaire ebolavirus
[38] = target: HLA-A*24:03; assay: IEDB peptide-MHC binding, purified MHC/direct/fluorescence; filed as Kd, often an IC50 or EC50 that approximates it; ≥ and ≤ were set here for values at or beyond the usual limits of such assays; settings: source organism: Zaire ebolavirus
[39] = target: HLA-A*29:02; assay: as above; settings: source organism: Zaire ebolavirus
[40] = target: HLA-B*39:01; assay: as above; settings: source organism: Zaire ebolavirus
[41] = target: HLA-B*46:01; assay: IEDB peptide-MHC binding, purified MHC/competitive/fluorescence; filed as Kd, often an IC50 or EC50 that approximates it; ≥ and ≤ were set here for values at or beyond the usual limits of such assays; settings: source organism: Influenza A virus (A/swine/Italy/1521/98(H1N2))
[42] = source organism: Mycobacterium tuberculosis variant bovis BCG str. Pasteur 1173P2
[43] = source organism: Orthohantavirus hantanense
[44] = source organism: Limestone Canyon virus
[45] = source organism: Hantaan virus 76-118
[46] = source organism: Giardia lamblia ATCC 50803
[47] = source organism: Bacillus licheniformis
[48] = source organism: Zaire ebolavirus
[49] = source organism: Influenza A virus (A/duck/Mongolia/47/2001(H7N1))
[50] = source organism: Influenza A virus (A/Puerto Rico/8/34/Mount Sinai(H1N1))

**Q.** YAKFARITL was tested. Which Kd [1, 42] did it give?
**A.** The Kd was at most 0.001 µM.

**Q.** With IRKPKHLYV as the sequence, how does the Kd [2, 43] read?
**A.** Its Kd is at least 20 µM.

**Q.** And the Kd [3, 43]?
**A.** Its Kd is at least 20 µM.

**Q.** What about the Kd [4, 44] of the same sequence?
**A.** Its Kd is at least 20 µM.

**Q.** What about the Kd [5, 44] of the same sequence?
**A.** Its Kd is at least 20 µM.

**Q.** And the Kd [6, 43]?
**A.** Its Kd is at least 20 µM.

**Q.** And the Kd [7, 43]?
**A.** Its Kd is at least 20 µM.

**Q.** What about the Kd [8, 43] of the same sequence?
**A.** The Kd was at least 20 µM.

**Q.** What about the Kd [9, 44] of the same sequence?
**A.** The Kd was at least 20 µM.

**Q.** What about the Kd [10, 43] of the same sequence?
**A.** Its Kd is at least 20 µM.

**Q.** What about the Kd [11, 43] of the same sequence?
**A.** The Kd was at least 20 µM.

**Q.** And the Kd ([12]; source organism: Hantavirus CRF367)?
**A.** The Kd was 14 µM.

**Q.** What about the Kd [13, 43] of the same sequence?
**A.** The Kd was at least 20 µM.

**Q.** What about the Kd [14, 43] of the same sequence?
**A.** The Kd was at least 20 µM.

**Q.** And the Kd [15, 43]?
**A.** The Kd was at least 20 µM.

**Q.** And the Kd [16, 43]?
**A.** The Kd was at least 20 µM.

**Q.** And the Kd [17, 43]?
**A.** Its Kd is at least 20 µM.

**Q.** What about the Kd [18, 43] of the same sequence?
**A.** Its Kd is at least 20 µM.

**Q.** And the Kd [19]?
**A.** The Kd was at least 20 µM.

**Q.** And the Kd [20, 43]?
**A.** The Kd was at least 20 µM.

**Q.** What about the Kd [21, 43] of the same sequence?
**A.** Its Kd is at least 20 µM.

**Q.** What about the Kd [22, 45] of the same sequence?
**A.** Its Kd is 0.031 µM.

**Q.** And the Kd [23, 45]?
**A.** Its Kd is at least 20 µM.

**Q.** And the Kd [24, 45]?
**A.** Its Kd is at least 20 µM.

**Q.** What about the Kd [25, 45] of the same sequence?
**A.** The Kd was at least 20 µM.

**Q.** And the Kd [26]?
**A.** The Kd was at least 20 µM.

**Q.** What about the Kd [27, 45] of the same sequence?
**A.** Its Kd is at least 20 µM.

**Q.** Which results are given for NLNFDQAAL?
**A.** Kd [28]: 0.0967 µM; Kd [29]: 0.0828 µM

**Q.** WSDLNTTDF was tested. Which Kd [2, 46] did it give?
**A.** The Kd was 0.156 µM.

**Q.** And the Kd [3, 46]?
**A.** The Kd was at least 20 µM.

**Q.** And the Kd [6, 46]?
**A.** Its Kd is at least 20 µM.

**Q.** What about the Kd [7, 46] of the same sequence?
**A.** The Kd was at least 20 µM.

**Q.** What about the Kd [30, 46] of the same sequence?
**A.** The Kd was at least 20 µM.

**Q.** What about the Kd [8, 46] of the same sequence?
**A.** Its Kd is at least 20 µM.

**Q.** What about the Kd [11, 46] of the same sequence?
**A.** Its Kd is at least 20 µM.

**Q.** And the Kd [13, 46]?
**A.** Its Kd is at least 20 µM.

**Q.** And the Kd [15, 46]?
**A.** Its Kd is at least 20 µM.

**Q.** And the Kd [16, 46]?
**A.** The Kd was at least 20 µM.

**Q.** And the Kd [17, 46]?
**A.** Its Kd is at least 20 µM.

**Q.** What about the Kd [18, 46] of the same sequence?
**A.** Its Kd is at least 20 µM.

**Q.** And the Kd [21, 46]?
**A.** Its Kd is at least 20 µM.

**Q.** What about the Kd [31] of the same sequence?
**A.** The Kd was at most 0.001 µM.

**Q.** What does the source list for GFMNEDHWF?
**A.** Kd [32]: 0.046 µM; Kd ([30]; source organism: Dengue virus 1 Singapore/S275/1990): 0.09 µM

**Q.** How did the Kd [22, 42] turn out when YTWNGTQWV was run?
**A.** The Kd was 0.343 µM.

**Q.** Which results are given for RLIWSHHHI?
**A.** Kd [3, 47]: 1.21 µM; Kd [8, 47]: 0.462 µM; Kd [10, 47]: 1.26 µM; Kd [11, 47]: 12 µM; Kd [13, 47]: 0.296 µM; Kd [21, 47]: 0.0247 µM; Kd [33]: 0.0879 µM

**Q.** With FVHDSVQYF as the sequence, how does the Kd ([22]; source organism: Bacillus cereus G9241) read?
**A.** Its Kd is 0.133 µM.

**Q.** What about the Kd [34] of the same sequence?
**A.** The Kd was 0.0289 µM.

**Q.** What about the Kd [35] of the same sequence?
**A.** The Kd was 0.0009 µM.

**Q.** Which IC50 [36] does the source give for GHMMVIFRL here?
**A.** The IC50 was 0.205 µM.

**Q.** What about the IC50 [37] of the same sequence?
**A.** The IC50 was 0.19 µM.

**Q.** And the Kd [2, 48]?
**A.** The Kd was at least 20 µM.

**Q.** What about the Kd [3, 48] of the same sequence?
**A.** Its Kd is at least 20 µM.

**Q.** And the Kd [4, 48]?
**A.** Its Kd is at least 20 µM.

**Q.** And the Kd [5, 48]?
**A.** Its Kd is at least 20 µM.

**Q.** What about the Kd [6, 48] of the same sequence?
**A.** The Kd was at least 20 µM.

**Q.** What about the Kd [38] of the same sequence?
**A.** The Kd was at least 20 µM.

**Q.** And the Kd [39]?
**A.** The Kd was at least 20 µM.

**Q.** And the Kd [8, 48]?
**A.** The Kd was at least 20 µM.

**Q.** And the Kd [9, 48]?
**A.** Its Kd is at least 20 µM.

**Q.** What about the Kd [10, 48] of the same sequence?
**A.** Its Kd is at least 20 µM.

**Q.** And the Kd [11, 48]?
**A.** Its Kd is at least 20 µM.

**Q.** What about the Kd [13, 48] of the same sequence?
**A.** Its Kd is at least 20 µM.

**Q.** What about the Kd [14, 48] of the same sequence?
**A.** Its Kd is at least 20 µM.

**Q.** What about the Kd [15, 48] of the same sequence?
**A.** The Kd was at least 20 µM.

**Q.** What about the Kd [40] of the same sequence?
**A.** The Kd was 0.0867 µM.

**Q.** And the Kd [16, 48]?
**A.** The Kd was at least 20 µM.

**Q.** And the Kd [17, 48]?
**A.** Its Kd is at least 20 µM.

**Q.** What about the Kd [18, 48] of the same sequence?
**A.** The Kd was at least 20 µM.

**Q.** And the Kd [20, 48]?
**A.** Its Kd is at least 20 µM.

**Q.** What about the Kd [21, 48] of the same sequence?
**A.** Its Kd is at least 20 µM.

**Q.** And the Kd [23, 48]?
**A.** The Kd was at least 20 µM.

**Q.** What about the Kd [24, 48] of the same sequence?
**A.** The Kd was at least 20 µM.

**Q.** And the Kd [25, 48]?
**A.** Its Kd is at least 20 µM.

**Q.** What about the Kd [27, 48] of the same sequence?
**A.** Its Kd is at least 20 µM.

**Q.** What does the source list for FLKDVMESM?
**A.** Kd [2, 49]: ≥ 20 µM; Kd ([4]; source organism: Influenza A virus H3N2): ≤ 0.001 µM; Kd [6, 49]: ≥ 20 µM; Kd [7, 49]: ≥ 20 µM; Kd [30, 49]: ≥ 20 µM; Kd [11, 50]: 0.312 µM; Kd [12, 50]: 0.158 µM; Kd [13, 50]: 0.22 µM; Kd [14, 49]: ≥ 20 µM; Kd [15, 49]: ≥ 20 µM; Kd [16, 49]: ≥ 20 µM; Kd [17, 49]: ≥ 20 µM; Kd [21, 49]: ≥ 20 µM; Kd ([1]; source organism: Influenza A virus (A/swine/Italy/1521/98(H1N2))): ≤ 0.001 µM; Kd [41]: 0.0239 µM

Reference: the Immune Epitope Database (IEDB)
